Non-standard residues stand in square brackets, D forms with d. Arg(Me) = CNC(=N)NCCC[C@H](N)C(=O)O; Dap(CONH2) = NC(=O)NC[C@H](N)C(=O)O; 4Pal = N[C@@H](Cc1ccncc1)C(=O)O; Cha = N[C@@H](CC1CCCCC1)C(=O)O; dIva = CC[C@@](C)(N)C(=O)O; Aib = CC(C)(N)C(=O)O
Legend:
human Y2 receptor [1] = molecular target: T1, human Y2 receptor (Homo sapiens, UniProt P49146); assay: Human Y2 Receptor G Protein Binding Assay (GBA), [35S]GTPγS; type: biochemical; conditions: EC50 of test compound/EC50 of PYY(3-36) (PYY3-36 taken as 1), hY2R/CHO membrane fraction
T1 construct: expressed in transfected cells; membrane fraction
T1 sequence (P49146 1-381): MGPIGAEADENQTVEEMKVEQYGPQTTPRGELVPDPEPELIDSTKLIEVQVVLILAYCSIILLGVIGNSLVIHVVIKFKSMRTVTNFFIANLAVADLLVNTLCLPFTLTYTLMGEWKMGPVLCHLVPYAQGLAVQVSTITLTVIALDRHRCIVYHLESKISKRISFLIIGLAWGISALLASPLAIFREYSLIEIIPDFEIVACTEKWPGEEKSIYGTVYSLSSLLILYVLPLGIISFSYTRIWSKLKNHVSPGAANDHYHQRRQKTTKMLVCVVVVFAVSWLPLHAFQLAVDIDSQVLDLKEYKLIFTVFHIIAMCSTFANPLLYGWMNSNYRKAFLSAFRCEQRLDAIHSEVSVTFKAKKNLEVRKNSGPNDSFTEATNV
Outline: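 Agonism measured as [35S]GTPγS binding, read by GF/C filtration and scintillation counting after 120 min at room temperature, using human Y2 membranes at 1 μg protein/mL in pH 7.4 Tris/MgCl2/NaCl/GDP buffer. Compound serially diluted 100 μM–1 nM; EC50 normalized to PYY(3-36) (ratio = compound/PYY).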

human Y2 receptor [2] = molecular target: T1, human Y2 receptor; assay: Receptor Binding Assay (RBA) for Human Y2, [125I]-PYY displacement on hY2R/CHO membrane fraction; conditions: IC50 of test compound/IC50 of PYY(3-36) (PYY(3-36) taken as 1)
Outline: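 hY2R stably expressed in CHO/dhfr− cells; membrane fraction prepared from cells disrupted in 10 mM NaHCO3, 5 mM EDTA buffer with protease inhibitors. Binding read as displacement of [125I]-PYY.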

Ac-[D-Pro24, Aib25,28,31, Pya(4)26, Cha27,36, Lys30]-PYY(23-36) (Ac-S[dP][Aib][4Pal][Cha][Aib]NK[Aib]TRQR[Cha]-NH2; SMILES CC(=O)N[C@@H](CO)C(=O)N1CCC[C@@H]1C(=O)NC(C)(C)C(=O)N[C@@H](Cc1ccncc1)C(=O)N[C@@H](CC1CCCCC1)C(=O)NC(C)(C)C(=O)N[C@@H](CC(N)=O)C(=O)N[C@@H](CCCCN)C(=O)NC(C)(C)C(=O)N[C@H](C(=O)N[C@@H](CCCNC(=N)N)C(=O)N[C@@H](CCC(N)=O)C(=O)N[C@@H](CCCNC(=N)N)C(=O)N[C@@H](CC1CCCCC1)C(N)=O)[C@@H](C)O) [compound No. 236]
GBA EC50 Ratio (human Y2 receptor [1]): 1.7
RBA IC50 Ratio (human Y2 receptor [2]): 8.4

Ac-[D-Pro24, Aib26,28,31, Cha27,36, Lys30]-PYY(23-36) (Ac-S[dP]R[Aib][Cha][Aib]NK[Aib]TRQR[Cha]-NH2; SMILES CC(=O)N[C@@H](CO)C(=O)N1CCC[C@@H]1C(=O)N[C@@H](CCCNC(=N)N)C(=O)NC(C)(C)C(=O)N[C@@H](CC1CCCCC1)C(=O)NC(C)(C)C(=O)N[C@@H](CC(N)=O)C(=O)N[C@@H](CCCCN)C(=O)NC(C)(C)C(=O)N[C@H](C(=O)N[C@@H](CCCNC(=N)N)C(=O)N[C@@H](CCC(N)=O)C(=O)N[C@@H](CCCNC(=N)N)C(=O)N[C@@H](CC1CCCCC1)C(N)=O)[C@@H](C)O) [compound No. 235]
GBA EC50 Ratio (human Y2 receptor [1]): 2.7
RBA IC50 Ratio (human Y2 receptor [2]): 2.1

Ac-[D-Pro24, Ala(4Pip)25, Pya(4)26, Cha27,36, Aib28,31, Lys30]-PYY(23-36) [compound No. 311] (Ac-S[dP][Ala(4Pip)][4Pal][Cha][Aib]NK[Aib]TRQR[Cha]-NH2; also: Ala(4Pip) configuration not fixed (D or L), former peak)
GBA EC50 Ratio (human Y2 receptor [1]): 14
RBA IC50 Ratio (human Y2 receptor [2]): 18

Ac-[D-Pro24, Alb26, Cha27,28,36, Aib31]-PYY(23-36) (Ac-S[dP]R[Dap(CONH2)][Cha][Cha]NL[Aib]TRQR[Cha]-NH2; SMILES CC(=O)N[C@@H](CO)C(=O)N1CCC[C@@H]1C(=O)N[C@@H](CCCNC(=N)N)C(=O)N[C@@H](CNC(N)=O)C(=O)N[C@@H](CC1CCCCC1)C(=O)N[C@@H](CC1CCCCC1)C(=O)N[C@@H](CC(N)=O)C(=O)N[C@@H](CC(C)C)C(=O)NC(C)(C)C(=O)N[C@H](C(=O)N[C@@H](CCCNC(=N)N)C(=O)N[C@@H](CCC(N)=O)C(=O)N[C@@H](CCCNC(=N)N)C(=O)N[C@@H](CC1CCCCC1)C(N)=O)[C@@H](C)O) [compound No. 149]
GBA EC50 Ratio (human Y2 receptor [1]): 2.2
RBA IC50 Ratio (human Y2 receptor [2]): 12

Ac-[D-Pro24, Arg(Me)25, Cha27,36, Aib28,31, Lys30]-PYY(23-36) (Ac-S[dP][Arg(Me)]H[Cha][Aib]NK[Aib]TRQR[Cha]-NH2; SMILES CNC(=N)NCCC[C@H](NC(=O)[C@H]1CCCN1C(=O)[C@H](CO)NC(C)=O)C(=O)N[C@@H](Cc1c[nH]cn1)C(=O)N[C@@H](CC1CCCCC1)C(=O)NC(C)(C)C(=O)N[C@@H](CC(N)=O)C(=O)N[C@@H](CCCCN)C(=O)NC(C)(C)C(=O)N[C@H](C(=O)N[C@@H](CCCNC(=N)N)C(=O)N[C@@H](CCC(N)=O)C(=O)N[C@@H](CCCNC(=N)N)C(=O)N[C@@H](CC1CCCCC1)C(N)=O)[C@@H](C)O) [compound No. 281]
GBA EC50 Ratio (human Y2 receptor [1]): 1.8
RBA IC50 Ratio (human Y2 receptor [2]): 1.8

Ac-[D-Pro24, Cha27,28,36, D-Iva29, Aib31]-PYY(23-36) (Ac-S[dP]RH[Cha][Cha][dIva]L[Aib]TRQR[Cha]-NH2; SMILES CC[C@@](C)(NC(=O)[C@H](CC1CCCCC1)NC(=O)[C@H](CC1CCCCC1)NC(=O)[C@H](Cc1c[nH]cn1)NC(=O)[C@H](CCCNC(=N)N)NC(=O)[C@H]1CCCN1C(=O)[C@H](CO)NC(C)=O)C(=O)N[C@@H](CC(C)C)C(=O)NC(C)(C)C(=O)N[C@H](C(=O)N[C@@H](CCCNC(=N)N)C(=O)N[C@@H](CCC(N)=O)C(=O)N[C@@H](CCCNC(=N)N)C(=O)N[C@@H](CC1CCCCC1)C(N)=O)[C@@H](C)O) [compound No. 179]
GBA EC50 Ratio (human Y2 receptor [1]): 37
RBA IC50 Ratio (human Y2 receptor [2]): 71
